Values quoted from earlier work as cited in PMC8946809.

Target: His516 (UniProt position 538, FRPNYHGVGTC)
Assay: kinetics
Conditions: enzyme-substrate complex

For “Glucose oxidase (GOx) (Aspergillus niger)”, the pKa is listed as 6.9–7.8.
